Laboratory results: PMC10485164, “Sequence-specific targeting of Caenorhabditis elegans C-Ala to the D-loop of tRNAAla”

Tests used:
Ce-C-Alac K938A = target: T1, Ce-C-Alac K938A (Caenorhabditis elegans, UniProt O01541 757-968, K938A); assay: EMSA; 5 mM Mg2+; EMSA: 20 mM Hepes pH 7.5, 20 mM KCl, 5 mM MgCl2, 2 mM DTT, 10 min on ice, 0.1 uM ligand; 5% native PAGE in 0.5x TBE at 4 C; protein 0.125-32 uM; details: protein: recombinant; tags: His6 (C-terminal, pET21b); label: 5'-32P; tRNA cloverleaf
T1 sequence: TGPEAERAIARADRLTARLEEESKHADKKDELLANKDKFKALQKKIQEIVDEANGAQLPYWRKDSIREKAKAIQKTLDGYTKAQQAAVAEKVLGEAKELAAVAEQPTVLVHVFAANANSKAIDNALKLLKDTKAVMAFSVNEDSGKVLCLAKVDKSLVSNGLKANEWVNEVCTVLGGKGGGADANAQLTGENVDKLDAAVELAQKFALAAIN

Ce-C-Alac K934A = target: T2, Ce-C-Alac K934A (Caenorhabditis elegans, UniProt O01541 757-968, K934A); assay: as above; details: protein: recombinant; tags: His6 (C-terminal, pET21b); label: 5'-32P; tRNA cloverleaf
T2 sequence: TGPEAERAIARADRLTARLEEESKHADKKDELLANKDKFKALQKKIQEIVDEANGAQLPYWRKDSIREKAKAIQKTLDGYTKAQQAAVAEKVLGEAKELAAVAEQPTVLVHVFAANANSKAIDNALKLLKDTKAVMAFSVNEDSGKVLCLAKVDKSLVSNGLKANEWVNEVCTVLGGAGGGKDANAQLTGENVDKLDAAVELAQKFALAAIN

B1: CetRNAnAla (structured_RNA)
RNA: GGGGGUAUAGCUCAGUGGUAGAGCGCUCCCUUAGCAUGGGAGAGGGCUGGGGUUCAAUUCCCCAUACCUCCACCA
Q: How did the binding signal (Ce-C-Alac K938A) turn out when B1 was run?
A: The binding signal was 3 fold lower affinity than WT Ce-C-Alac.

Q: And the binding signal (Ce-C-Alac K934A)?
A: The binding signal was 11 fold lower affinity than WT Ce-C-Alac.
